From patent publication US8722622B2, “FGF21 conjugates and anti-diabetic uses thereof” (COVX Technologies Ireland, Limited, priority 2010, dated 2014)
Like-named read-outs stand apart in the source and are kept apart here.

Legend:
[1] = test system: Glut1 mRNA expression in differentiated 3T3-L1 adipocytes; experiment: Glut1 Taqman assay; assay type: cell-based; details: 6 hrs
Procedure: Differentiated 3T3-L1 adipocytes were used to measure the Glut1 mRNA expression by qPCR method. Overnight serum starved day 10-14 differentiated 3T3-L1 adipocytes were treated with compounds for 6 hrs. Total RNA was extracted from these cells, and Glut1 and GAPDH mRNA expression was measured using a Quantitect Probe RT-PCR kit and running a quantitative real time PCR reaction in a Taqman machine (Applied Biosystems®). The bioactivity of the compounds was determined by a fold change in Glut1 mRNA levels normalized by the GAPDH mRNA levels from each sample. EC50 values as measurements of the potency of the compounds were obtained from the dose response curves in the assay.
3T3-L1 adipocytes were seeded at day 8 in 24-well tissue culture plates (Falcon®, Cat#353047), and incubated in DMEM complete medium (10% FBS, 2 mM L-glutamine, 1% P/S) at 37° C., 5% CO2. […] The medium was aspirated, and then RNA extracted from the cells using the RNeasy mini Kit according to the manufacturer's instructions. RNA was measured at A260 nm using the Spectramax® Plus spectrophotometer.

[2] = Stability of linkers L1-L4 conjugated to FGF21 (LC-MS); assay type: physicochemical; details: +4° C.
Procedure: The following experiment was performed to investigate the chemical stability over 2 weeks of the four linkers upon conjugation to FGF21: each linker was conjugated to FGF21, placed at +4° C. storage conditions, and aliquots were removed and quenched by freezing at specific time points, and linker stability was monitored by LCMS analysis.
The four linkers were dissolved in DMSO from lyophilized stock material. […] L1 was reacted with protein for 30 mins; L2, L3 and L4 were reacted for 2 hrs. The conjugation reaction was quenched by removal of excess linkers through size-exclusion resin. Conjugated FGF21ΔH-A129C protein was placed at +4° C. for stability storage. […] Analysis of linker stability was performed by LC-MS analysis to determine the relative amount of unconjugated protein, protein+linker conjugation, and single and double hydrolysis events of the conjugated protein+linker.
Linker hydrolysis is the critical analytical variable in this experiment. Hydrolysis was monitored by observing the subsequent addition of H2O to the FGF21-linker complex. A single addition of H2O, +(1) H2O, likely indicates the hydrolysis of the active AZD group that is present on all 4 linkers. The addition of a second H2O molecule, +(2) H2O, is a strong indicator of hydrolysis (eg—chemical instability) in the linker. L1 is particularly susceptible because of the presence of a maleimide functional group.

[3] = differentiated 3T3-L1 adipocytes, read-out: EC50 in Glut1 Taqman assay
[4] = 0 hrs, % of total measured protein

Molecule | EC50 [1, 3] | 1 linker (protein+linker) ([2]; 0 hrs) | +(1) H2O ([2]; 0 hrs) | +(2) H2O ([2]; 0 hrs) | 0 linker (unconjugated protein) [2, 4] | 0 linker (unconjugated protein) ([2]; 24 hrs) | 1 linker (protein+linker) ([2]; 24 hrs) | +(1) H2O ([2]; 24 hrs) | +(2) H2O ([2]; 24 hrs) | 0 linker (unconjugated protein) ([2]; 72 hrs) | 1 linker (protein+linker) ([2]; 72 hrs) | +(1) H2O ([2]; 72 hrs) | +(2) H2O ([2]; 72 hrs) | 0 linker (unconjugated protein) ([2]; 168 hrs) | 1 linker (protein+linker) ([2]; 168 hrs) | +(1) H2O ([2]; 168 hrs) | +(2) H2O ([2]; 168 hrs) | 0 linker (unconjugated protein) ([2]; 336 hrs) | 1 linker (protein+linker) ([2]; 336 hrs) | +(1) H2O ([2]; 336 hrs) | also measured
FGF21ΔH-Knull-P2: FGF21 lysine-null mutant, SEQ ID NO:22 (protein, listed as Homo sapiens) PIPDSSPLLQFGGQVRQRYLYTDDAQQTEAHLEIREDGTVGGAADQSPESLLQLRALRPGVIQILGVRTSRFLCQRPDGALYGSLHFDPEACSFRELLLEDGYNVYQSEAHGLPLHLPGNRSPHRDPAPRGPARFLPLPGLPPAPLEPPGILAPQPPDVGSSDPLSMVGPSQGRSPSYAS | 1.2 nM |  |  |  |  |  |  |  |  |  |  |  |  |  |  |  |  |  |  |  | 
L3-FGF21ΔH-A129C: Linker-3 conjugated to FGF21ΔH-A129C protein (Table 4; Table 5 row L3) (conjugate, UniProt Q9NSA1 29-209, looked up, variant H1* A129C, Linker-3 attached) Fibroblast growth factor 21: PIPDSSPLLQFGGQVRQRYLYTDDAQQTEAHLEIREDGTVGGAADQSPESLLQLKALKPGVIQILGVKTSRFLCQRPDGALYGSLHFDPEACSFRELLLEDGYNVYQSEAHGLPLHLPGNKSPHRDPCPRGPARFLPLPGLPPALPEPPGILAPQPPDVGSSDPLSMVGPSQGRSPSYAS |  | 45% | 30% | 6% | 19% | 18% | 47% | 27% | 8% | 19% | 43% | 30% | 8% | 19% | 43% | 29% | 8% | 20% | 43% | 29% | +(2) H2O ([2]; 336 hrs (2 weeks)): 8%
FGF21ΔH-A129C: FGF21 cysteine mutant, SEQ ID NO:9 (protein, listed as Homo sapiens) PIPDSSPLLQFGGQVRQRYLYTDDAQQTEAHLEIREDGTVGGAADQSPESLLQLKALKPGVIQILGVKTSRFLCQRPDGALYGSLHFDPEACSFRELLLEDGYNVYQSEAHGLPLHLPGNKSPHRDPCPRGPARFLPLPGLPPALPEPPGILAPQPPDVGSSDPLSMVGPSQGRSPSYAS | 1.4 nM |  |  |  |  |  |  |  |  |  |  |  |  |  |  |  |  |  |  |  | EC50 ([1]; 3T3-L1 adipocytes, Taqman quantitative real-time PCR, read-out: Glut1 RNA expression EC50): 16 nM; Glut1 induction in 3T3-L1 adipocytes [1]: dose-dependent Glut1 induction
L4-FGF21ΔH-A129C: Linker-4 conjugated to FGF21ΔH-A129C protein (Table 4; Table 5 row L4) (conjugate, UniProt Q9NSA1 29-209, looked up, variant H1* A129C, Linker-4 attached) Fibroblast growth factor 21: PIPDSSPLLQFGGQVRQRYLYTDDAQQTEAHLEIREDGTVGGAADQSPESLLQLKALKPGVIQILGVKTSRFLCQRPDGALYGSLHFDPEACSFRELLLEDGYNVYQSEAHGLPLHLPGNKSPHRDPCPRGPARFLPLPGLPPALPEPPGILAPQPPDVGSSDPLSMVGPSQGRSPSYAS |  | 46% | 28% | 6% | 20% | 20% | 46% | 27% | 7% | 21% | 42% | 30% | 7% | 21% | 41% | 32% | 6% | 22% | 41% | 31% | +(2) H2O ([2]; 336 hrs (2 weeks)): 6%
FGF21ΔH-Knull-S181K: FGF21 lysine-null mutant with S181K, SEQ ID NO:24 (protein, listed as Homo sapiens) PIPDSSPLLQFGGQVRQRYLYTDDAQQTEAHLEIREDGTVGGAADQSPESLLQLRALRPGVIQILGVRTSRFLCQRPDGALYGSLHFDPEACSFRELLLEDGYNVYQSEAHGLPLHLPGNRSPHRDPAPRGPARFLPLPGLPPAPLEPPGILAPQPPDVGSSDPLSMVGPSQGRSPSYAK | 7.5 nM |  |  |  |  |  |  |  |  |  |  |  |  |  |  |  |  |  |  |  | 
L2-FGF21ΔH-A129C: Linker-2 conjugated to FGF21ΔH-A129C protein (Table 4; Table 5 row L2) (conjugate, UniProt Q9NSA1 29-209, looked up, variant H1* A129C, Linker-2 attached) Fibroblast growth factor 21: PIPDSSPLLQFGGQVRQRYLYTDDAQQTEAHLEIREDGTVGGAADQSPESLLQLKALKPGVIQILGVKTSRFLCQRPDGALYGSLHFDPEACSFRELLLEDGYNVYQSEAHGLPLHLPGNKSPHRDPCPRGPARFLPLPGLPPALPEPPGILAPQPPDVGSSDPLSMVGPSQGRSPSYAS |  | 45% | 27% | 6% | 22% | 23% | 43% | 26% | 8% | 24% | 37% | 32% | 8% | 24% | 40% | 29% | 7% | 26% | 38% | 28% | +(2) H2O ([2]; 336 hrs (2 weeks)): 8%
FGF21ΔH-H125C: FGF21 cysteine mutant, SEQ ID NO:6 (protein, listed as Homo sapiens) PIPDSSPLLQFGGQVRQRYLYTDDAQQTEAHLEIREDGTVGGAADQSPESLLQLKALKPGVIQILGVKTSRFLCQRPDGALYGSLHFDPEACSFRELLLEDGYNVYQSEAHGLPLHLPGNKSPCRDPAPRGPARFLPLPGLPPALPEPPGILAPQPPDVGSSDPLSMVGPSQGRSPSYAS | 1.2 nM |  |  |  |  |  |  |  |  |  |  |  |  |  |  |  |  |  |  |  | 
L1-FGF21ΔH-A129C: Linker-1 conjugated to FGF21ΔH-A129C protein (Table 4; Table 5 row L1) (conjugate, UniProt Q9NSA1 29-209, looked up, variant H1* A129C, Linker-1 attached) Fibroblast growth factor 21: PIPDSSPLLQFGGQVRQRYLYTDDAQQTEAHLEIREDGTVGGAADQSPESLLQLKALKPGVIQILGVKTSRFLCQRPDGALYGSLHFDPEACSFRELLLEDGYNVYQSEAHGLPLHLPGNKSPHRDPCPRGPARFLPLPGLPPALPEPPGILAPQPPDVGSSDPLSMVGPSQGRSPSYAS |  | 49% | 30% | 8% | 13% | 14% | 41% | 34% | 11% | 14% | 40% | 35% | 11% | 10% | 33% | 40% | 18% | 12% | 28% | 41% | +(2) H2O ([2]; 336 hrs (2 weeks)): 18%
